This is an account of results in paper PMC7542843 (ACS Omega, 2020).

One test has as its target EGF (Homo sapiens) (UniProt P01133). The following applies: cited from earlier work.
The target in test [1] is biotinylated HER3 extracellular domain (ECD) (UniProt P21860 20-643, biotin on the C-terminal BirA biotinylation site). The test is described as follows: ELISA. In general terms: In an ELISA, binding on a coated surface is turned into a signal by an enzyme label.
Sequence of biotinylated HER3 extracellular domain (ECD) (P21860 20-643): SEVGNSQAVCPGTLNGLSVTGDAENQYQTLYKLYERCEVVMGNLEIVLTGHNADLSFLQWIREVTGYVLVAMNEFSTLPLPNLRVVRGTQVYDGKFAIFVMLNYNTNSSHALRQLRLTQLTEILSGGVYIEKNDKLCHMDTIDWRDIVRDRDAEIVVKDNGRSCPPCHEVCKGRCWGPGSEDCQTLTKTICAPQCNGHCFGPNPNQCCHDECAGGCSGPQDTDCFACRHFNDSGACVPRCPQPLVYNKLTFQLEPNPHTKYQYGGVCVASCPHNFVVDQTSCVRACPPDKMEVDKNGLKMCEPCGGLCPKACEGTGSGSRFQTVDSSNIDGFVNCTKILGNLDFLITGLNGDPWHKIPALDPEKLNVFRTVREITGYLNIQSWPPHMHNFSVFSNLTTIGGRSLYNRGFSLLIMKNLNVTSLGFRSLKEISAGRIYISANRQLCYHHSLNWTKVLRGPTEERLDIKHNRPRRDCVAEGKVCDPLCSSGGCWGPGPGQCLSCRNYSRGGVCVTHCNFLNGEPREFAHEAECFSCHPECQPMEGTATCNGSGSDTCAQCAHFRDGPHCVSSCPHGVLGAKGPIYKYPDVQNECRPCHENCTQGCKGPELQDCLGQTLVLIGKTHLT

Sequence of EGF (Homo sapiens) (P01133 971-1023): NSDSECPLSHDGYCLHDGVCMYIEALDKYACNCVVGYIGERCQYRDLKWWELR

For orientation: Kd means the constant that tells how readily two partners part at equilibrium. Regarding EGFR (from UniProt P00533), the Kd in the test with EGF (Homo sapiens) was 177 nM.

B1: Heregulin-β1 (Hrgβ1) (ligand)
chain: TSHLVKCAEKEKTFCVNGGECFMVKDLSNPSRYLCKCPNEFTGDRCQNYVMASFYKHLGIEFMEAEELYQK
In turn, B1 showed an equilibrium dissociation constant (Kd) in test [1] of 12.6 nM.
